According to the supplement of paper PMC11246515:
± gives the standard deviation of the averaged measurements.

Test: total protein half-life in vivo (active degradation + dilution); higher = more stable protein
[1] = E. coli NCM3722 delta-clpP delta-lon delta-hslV, growth: N-lim chemostat, doubling time 6 h
[2] = E. coli NCM3722 delta-clpP, growth: N-lim chemostat, doubling time 6 h
[3] = E. coli NCM3722 delta-hslV, growth: N-lim chemostat, doubling time 6 h
[4] = E. coli NCM3722 delta-lon, growth: N-lim chemostat, doubling time 6 h
[5] = E. coli NCM3722 delta-smpB, growth: N-lim chemostat, doubling time 6 h
[6] = wild type E. coli NCM3722, growth: C-lim chemostat, doubling time 3 h
[7] = wild type E. coli NCM3722, growth: C-lim chemostat, doubling time 6 h
[8] = wild type E. coli NCM3722, growth: C-lim chemostat, doubling time 12 h
[9] = wild type E. coli NCM3722, growth: N-lim chemostat, doubling time 6 h
[10] = wild type E. coli NCM3722, growth: N-lim chemostat, doubling time 12 h
[11] = wild type E. coli NCM3722, growth: P-lim chemostat, doubling time 6 h
[12] = wild type E. coli NCM3722, growth: P-lim chemostat, doubling time 12 h

MSKPIVMERGVKYRDADKMALIPVKNVATEREALLRKPEWMKIKLPADSTRIQGIKAAMRKNGLHSVCEEASCPNLAECFNHGTATFMILGAICTRRCPFCDVAHGRPVAPDANEPVKLAQTIADMALRYVVITSVDRDDLRDGGAQHFADCITAIREKSPQIKIETLVPDFRGRMDRALDILTATPPDVFNHNLENVPRIYRQVRPGADYNWSLKLLERFKEAHPEIPTKSGLMVGLGETNEEIIEVMRDLRRHGVTMLTLGQYLQPSRHHLPVQRYVSPDEFDEMKAEALAMGFTHAACGPFVRSSYHADLQAKGMEVK
total protein half-life in vivo [1]: 5.22 ± 1 h
total protein half-life in vivo [2]: 1.56 ± 0.071 h
total protein half-life in vivo [3]: 1.64 ± 0.38 h
total protein half-life in vivo [4]: 1.84 ± 0.034 h
total protein half-life in vivo [5]: 1.27 ± 0.14 h
total protein half-life in vivo [6]: 1.23 ± 0.056 h
total protein half-life in vivo [7]: 1.93 ± 0.095 h
total protein half-life in vivo [8]: 2.47 ± 0.21 h
total protein half-life in vivo [9]: 1.67 ± 0.095 h
total protein half-life in vivo [10]: 2.4 ± 0.28 h
total protein half-life in vivo [11]: 1.74 ± 0.22 h
total protein half-life in vivo [12]: 3.3 ± 0.49 h

MSKQLTAQAPVDPIVLGKMGSSYGIRGWLRVFSSTEDAESIFDYQPWFIQKAGQWQQVQLESWKHHNQDMIIKLKGVDDRDAANLLTNCEIVVDSSQLPQLEEGDYYWKDLMGCQVVTTEGYDLGKVVDMMETGSNDVLVIKANLKDAFGIKERLVPFLDGQVIKKVDLTTRSIEVDWDPGF [P0A7X6]
total protein half-life in vivo [1]: 5.56 ± 0.28 h
total protein half-life in vivo [2]: 3.21 h
total protein half-life in vivo [3]: 3.38 h
total protein half-life in vivo [4]: 4.04 ± 1.9 h
total protein half-life in vivo [5]: 3.79 h
total protein half-life in vivo [6]: 2.65 ± 0.43 h
total protein half-life in vivo [7]: 4.72 ± 0.19 h
total protein half-life in vivo [8]: 7.94 ± 0.8 h
total protein half-life in vivo [10]: 5.22 h
total protein half-life in vivo [12]: 3.98 ± 0.42 h

MSKQQIGVVGMAVMGRNLALNIESRGYTVSIFNRSREKTEEVIAENPGKKLVPYYTVKEFVESLETPRRILLMVKAGAGTDAAIDSLKPYLDKGDIIIDGGNTFFQDTIRRNRELSAEGFNFIGTGVSGGEEGALKGPSIMPGGQKEAYELVAPILTKIAAVAEDGEPCVTYIGADGAGHYVKMVHNGIEYGDMQLIAEAYSLLKGGLNLTNEELAQTFTEWNNGELSSYLIDITKDIFTKKDEDGNYLVDVILDEAANKGTGKWTSQSALDLGEPLSLITESVFARYISSLKDQRVAASKVLSGPQAQPAGDKAEFIEKVRRALYLGKIVSYAQGFSQLRAASEEYNWDLNYGEIAKIFRAGCIIRAQFLQKITDAYAENPQIANLLLAPYFKQIADDYQQALRDVVAYAVQNGIPVPTFSAAVAYYDSYRAAVLPANLIQAQRDYFGAHTYKRIDKEGVFHTEWLD
total protein half-life in vivo [1]: 5.22 ± 0.18 h
total protein half-life in vivo [2]: 4.9 ± 0.45 h
total protein half-life in vivo [3]: 5 ± 0.17 h
total protein half-life in vivo [4]: 5.58 ± 0.25 h
total protein half-life in vivo [5]: 4.68 ± 0.083 h
total protein half-life in vivo [6]: 3.21 ± 0.06 h
total protein half-life in vivo [7]: 5.85 ± 0.4 h
total protein half-life in vivo [8]: 10 ± 0.24 h
total protein half-life in vivo [9]: 4.73 ± 0.23 h
total protein half-life in vivo [10]: 8.31 ± 0.24 h
total protein half-life in vivo [11]: 6.054 ± 0.042 h
total protein half-life in vivo [12]: 12.9 ± 1.8 h

MSKRLPPLNALRVFDAAARHLSFTRAAEELFVTQAAVSHQIKSLEDFLGLKLFRRRNRSLLLTEEGQSYFLDIKEIFSQLTEATRKLQARSAKGALTVSLLPSFAIHWLVPRLSSFNSAYPGIDVRIQAVDRQEDKLADDVDVAIFYGRGNWPGLRVEKLYAEYLLPVCSPLLLTGEKPLKTPEDLAKHTLLHDASRRDWQTYTRQLGLNHINVQQGPIFSHSAMVLQAAIHGQGVALANNVMAQSEIEAGRLVCPFNDVLVSKNAFYLVCHDSQAELGKIAAFRQWILAKAAAEQEKFRFRYEQ [P0A9F6]
total protein half-life in vivo [1]: 5.93 ± 0.27 h
total protein half-life in vivo [3]: 5.94 ± 0.4 h
total protein half-life in vivo [5]: 5.73 ± 0.34 h
total protein half-life in vivo [6]: 3.2 ± 0.13 h
total protein half-life in vivo [7]: 6.59 ± 0.7 h
total protein half-life in vivo [8]: 11 ± 0.54 h
total protein half-life in vivo [9]: 6.86 ± 0.45 h
total protein half-life in vivo [10]: 12.1 ± 0.34 h
total protein half-life in vivo [11]: 5.82 ± 0.081 h
total protein half-life in vivo [12]: 13.3 ± 1.3 h

MSKRRVVVTGLGMLSPVGNTVESTWKALLAGQSGISLIDHFDTSAYATKFAGLVKDFNCEDIISRKEQRKMDAFIQYGIVAGVQAMQDSGLEITEENATRIGAAIGSGIGGLGLIEENHTSLMNGGPRKISPFFVPSTIVNMVAGHLTIMYGLRGPSISIATACTSGVHNIGHAARIIAYGDADVMVAGGAEKASTPLGVGGFGAARALSTRNDNPQAASRPWDKERDGFVLGDGAGMLVLEEYEHAKKRGAKIYAELVGFGMSSDAYHMTSPPENGAGAALAMANALRDAGIEASQIGYVNAHGTSTPAGDKAEAQAVKTIFGEAASRVLVSSTKSMTGHLLGAAGAVESIYSILALRDQAVPPTINLDNPDEGCDLDFVPHEARQVSGMEYTLCNSFGFGGTNGSLIFKKI [P0AAI5]
total protein half-life in vivo [1]: 6.45 ± 1.9 h
total protein half-life in vivo [2]: 4.94 ± 0.21 h
total protein half-life in vivo [3]: 4.87 ± 0.28 h
total protein half-life in vivo [4]: 5.15 ± 0.41 h
total protein half-life in vivo [5]: 4.89 ± 0.14 h
total protein half-life in vivo [6]: 3.121 ± 0.02 h
total protein half-life in vivo [7]: 6.09 ± 0.35 h
total protein half-life in vivo [8]: 12.1 ± 0.42 h
total protein half-life in vivo [9]: 4.89 ± 0.34 h
total protein half-life in vivo [10]: 8.33 ± 0.17 h
total protein half-life in vivo [11]: 6.13 ± 0.29 h
total protein half-life in vivo [12]: 12.6 ± 0.18 h

MSKRYFVTGTDTEVGKTVASCALLQAAKAAGYRTAGYKPVASGSEKTPEGLRNSDALALQRNSSLQLDYATVNPYTFAEPTSPHIISAQEGRPIESLVMSAGLRALEQQADWVLVEGAGGWFTPLSDTFTFADWVTQEQLPVILVVGVKLGCINHAMLTAQVIQHAGLTLAGWVANDVTPPGKRHAEYMTTLTRMIPAPLLGEIPWLAENPENAATGKYINLALL
total protein half-life in vivo [1]: 5.58 ± 0.28 h
total protein half-life in vivo [2]: 5.37 ± 1.1 h
total protein half-life in vivo [3]: 4.33 ± 0.7 h
total protein half-life in vivo [4]: 5.17 ± 0.34 h
total protein half-life in vivo [5]: 4.64 ± 0.34 h
total protein half-life in vivo [6]: 3.06 ± 0.18 h
total protein half-life in vivo [7]: 6.24 ± 0.58 h
total protein half-life in vivo [9]: 5.44 ± 0.92 h
total protein half-life in vivo [10]: 9.86 ± 1.2 h
total protein half-life in vivo [11]: 5.77 ± 0.12 h
total protein half-life in vivo [12]: 12.5 ± 0.99 h

MSKSDVFHLGLTKNDLQGATLAIVPGDPDRVEKIAALMDKPVKLASHREFTTWRAELDGKPVIVCSTGIGGPSTSIAVEELAQLGIRTFLRIGTTGAIQPHINVGDVLVTTASVRLDGASLHFAPLEFPAVADFECTTALVEAAKSIGATTHVGVTASSDTFYPGQERYDTYSGRVVRHFKGSMEEWQAMGVMNYEMESATLLTMCASQGLRAGMVAGVIVNRTQQEIPNAETMKQTESHAVKIVVEAARRLL
total protein half-life in vivo [1]: 6.83 ± 0.33 h
total protein half-life in vivo [2]: 6.27 ± 0.78 h
total protein half-life in vivo [3]: 7.09 ± 0.43 h
total protein half-life in vivo [4]: 5.95 ± 0.47 h
total protein half-life in vivo [5]: 5.823 ± 0.029 h
total protein half-life in vivo [6]: 3.23 ± 0.11 h
total protein half-life in vivo [7]: 6.246 ± 0.033 h
total protein half-life in vivo [8]: 13.7 ± 2.1 h
total protein half-life in vivo [9]: 5.75 ± 0.092 h
total protein half-life in vivo [10]: 10.7 ± 0.74 h
total protein half-life in vivo [11]: 5.99 ± 0.2 h
total protein half-life in vivo [12]: 12.4 ± 0.29 h

MSKSHPRWRLAKKILTWLFFIAVIVLLVVYAKKVDWEEVWKVIRDYNRVALLSAVGLVVVSYLIYGCYDLLARFYCGHKLAKRQVMLVSFICYAFNLTLSTWVGGIGMRYRLYSRLGLPGSTITRIFSLSITTNWLGYILLAGIIFTAGVVELPDHWYVDQTTLRILGIGLLMIIAVYLWFCAFAKHRHMTIKGQKLVLPSWKFALAQMLISSVNWMVMGAIIWLLLGQSVNYFFVLGVLLVSSIAGVIVHIPAGIGVLEAVFIALLAGEHTSKGTIIAALLAYRVLYYFIPLLLALICYLLLESQAKKLRAKNEAAM
total protein half-life in vivo [5]: 4.62 ± 0.87 h

MSKSTAEIRQAFLDFFHSKGHQVVASSSLVPHNDPTLLFTNAGMNQFKDVFLGLDKRNYSRATTSQRCVRAGGKHNDLENVGYTARHHTFFEMLGNFSFGDYFKHDAIQFAWELLTSEKWFALPKERLWVTVYESDDEAYEIWEKEVGIPRERIIRIGDNKGAPYASDNFWQMGDTGPCGPCTEIFYDHGDHIWGGPPGSPEEDGDRYIEIWNIVFMQFNRQADGTMEPLPKPSVDTGMGLERIAAVLQHVNSNYDIDLFRTLIQAVAKVTGATDLSNKSLRVIADHIRSCAFLIADGVMPSNENRGYVLRRIIRRAVRHGNMLGAKETFFYKLVGPLIDVMGSAGEDLKRQQAQVEQVLKTEEEQFARTLERGLALLDEELAKLSGDTLDGETAFRLYDTYGFPVDLTADVCRERNIKVDEAGFEAAMEEQRRRAREASGFGADYNAMIRVDSASEFKGYDHLELNGKVTALFVDGKAVDAINAGQEAVVVLDQTPFYAESGGQVGDKGELKGANFSFAVEDTQKYGQAIGHIGKLAAGSLKVGDAVQADVDEARRARIRLNHSATHLMHAALRQVLGTHVSQKGSLVNDKVLRFDFSHNEAMKPEEIRAVEDLVNTQIRRNLPIETNIMDLEAAKAKGAMALFGEKYDERVRVLSMGDFSTELCGGTHASRTGDIGLFRIISESGTAAGVRRIEAVTGEGAIATVHADSDRLSEVAHLLKGDSNNLADKVRSVLERTRQLEKELQQLKEQAAAQESANLSSKAIDVNGVKLLVSELSGVEPKMLRTMVDDLKNQLGSTIIVLATVVEGKVSLIAGVSKDVTDRVKAGELIGMVAQQVGGKGGGRPDMAQAGGTDAAALPAALASVKGWVSAKLQ
total protein half-life in vivo [1]: 5.338 ± 0.0061 h
total protein half-life in vivo [2]: 5.33 ± 0.19 h
total protein half-life in vivo [3]: 5.65 ± 0.48 h
total protein half-life in vivo [4]: 5.67 ± 0.09 h
total protein half-life in vivo [5]: 5.06 ± 0.068 h
total protein half-life in vivo [6]: 3.04 ± 0.14 h
total protein half-life in vivo [7]: 6.01 ± 0.44 h
total protein half-life in vivo [8]: 11 ± 0.2 h
total protein half-life in vivo [9]: 5.11 ± 0.11 h
total protein half-life in vivo [10]: 9.15 ± 0.27 h
total protein half-life in vivo [11]: 6.2 ± 0.075 h
total protein half-life in vivo [12]: 11.9 ± 0.62 h

MSKVLVLKSSILAGYSQSNQLSDYFVEQWREKHSADEITVRDLAANPIPVLDGELVGALRPSDAPLTPRQQEALALSDELIAELKAHDVIVIAAPMYNFNISTQLKNYFDLVARAGVTFRYTENGPEGLVTGKKAIVITSRGGIHKDGPTDLVTPYLSTFLGFIGITDVKFVFAEGIAYGPEMAAKAQSDAKAAIDSIVSA
total protein half-life in vivo [1]: 2.22 ± 0.11 h
total protein half-life in vivo [2]: 1.48 ± 0.24 h
total protein half-life in vivo [3]: 1.34 ± 0.044 h
total protein half-life in vivo [4]: 1.5 ± 0.044 h
total protein half-life in vivo [5]: 1.49 ± 0.15 h
total protein half-life in vivo [6]: 2.81 ± 0.096 h
total protein half-life in vivo [7]: 3.39 ± 0.25 h
total protein half-life in vivo [8]: 5.43 ± 0.92 h
total protein half-life in vivo [9]: 1.52 ± 0.16 h
total protein half-life in vivo [10]: 1.85 ± 0.14 h
total protein half-life in vivo [11]: 4.25 ± 0.14 h
total protein half-life in vivo [12]: 6.31 ± 0.4 h
